The text below walks through data of PMC10491584, “Structural convergence endows nuclear transport receptor Kap114p with a transcriptional repressor function toward TATA-binding protein” (Nature Communications, 2023).

The experiment addresses T1, Kap114p wild type (S. cerevisiae, UniProt P53067 1-1004).
T1 construct: Kap114p (karyopherin-β), S. cerevisiae, full length, amplified from total genomic DNA; GST tag followed by a PreScission site (modified pGEX6p1); PreScission protease added during dialysis; also called Kap114p WT; GST-Kap114p (plasmid pGEX-6P-1-Kap114); source: E. coli Rosetta, purified (GST resin, MonoQ, Superdex 200)
T1 sequence (looked up): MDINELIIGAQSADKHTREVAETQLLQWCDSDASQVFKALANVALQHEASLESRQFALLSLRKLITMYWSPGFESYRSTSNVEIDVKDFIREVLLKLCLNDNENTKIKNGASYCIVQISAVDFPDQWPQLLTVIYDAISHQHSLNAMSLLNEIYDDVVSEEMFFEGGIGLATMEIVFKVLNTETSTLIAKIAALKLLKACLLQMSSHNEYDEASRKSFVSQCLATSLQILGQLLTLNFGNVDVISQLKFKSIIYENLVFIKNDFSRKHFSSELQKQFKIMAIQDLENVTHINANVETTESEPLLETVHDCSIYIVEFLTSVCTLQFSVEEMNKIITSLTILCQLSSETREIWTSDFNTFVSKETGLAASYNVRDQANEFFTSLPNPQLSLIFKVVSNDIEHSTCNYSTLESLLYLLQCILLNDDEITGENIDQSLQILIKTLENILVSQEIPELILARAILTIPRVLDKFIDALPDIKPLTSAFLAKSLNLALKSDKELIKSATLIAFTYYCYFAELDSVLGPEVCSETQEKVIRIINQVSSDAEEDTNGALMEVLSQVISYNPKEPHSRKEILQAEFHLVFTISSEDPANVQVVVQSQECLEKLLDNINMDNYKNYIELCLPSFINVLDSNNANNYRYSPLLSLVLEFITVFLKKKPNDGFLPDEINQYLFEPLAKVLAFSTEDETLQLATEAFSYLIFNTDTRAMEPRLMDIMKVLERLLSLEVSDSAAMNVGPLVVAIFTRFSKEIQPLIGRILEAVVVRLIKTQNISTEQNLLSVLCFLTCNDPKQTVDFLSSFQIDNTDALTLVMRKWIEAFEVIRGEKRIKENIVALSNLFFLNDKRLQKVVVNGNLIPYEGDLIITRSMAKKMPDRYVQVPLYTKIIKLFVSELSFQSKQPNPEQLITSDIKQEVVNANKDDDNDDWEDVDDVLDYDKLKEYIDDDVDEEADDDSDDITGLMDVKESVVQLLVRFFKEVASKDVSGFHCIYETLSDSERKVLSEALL
Description: ITC; MicroCal iTC200, 25 °C, 20 mM HEPES pH 7.4, 150 mM NaCl; low concentration: 25 µM wild type or mutant Kap114p in the sample cell, 250 µM wild type or mutant yTBPC in the syringe; triplicate. The conditions noted are these: both partners purified.

B1: yTBP^C wild type (core domain of yeast TATA-box binding protein, a.a. 61-240) (domain or fragment, S. cerevisiae, UniProt P13393 61-240, looked up)
chain: SGIVPTLQNIVATVTLGCRLDLKTVALHARNAEYNPKRFAAVIMRIREPKTTALIFASGKMVVTGAKSEDDSKLASRKYARIIQKIGFAAKFTDFKIQNIVGSCDVKFPIRLEGLAFSHGTFSSYEPELFPGLIYRMVKPKIVLLIFVSGKIVLTGAKQREEIYQAFEAIYPVLSEFRKM
notes: modified pET28a, 6xHis tag followed by a PreScission site; also called yTBPC WT; His-yTBP (61-240); source: E. coli Rosetta, purified (Ni-NTA, HiTrap SP, Superdex 75); not shown: His6, N-terminal, cleaved
With B1, the dissociation constant (Kd) was 1.4 nM.

By Kd is commonly meant the concentration at which binding is half-saturated. High values mean a looser complex, low ones a tighter complex.
